{"source": "paper PMC5322562", "about": "“Dynamic regulation of GDP binding to G proteins revealed by magnetic field-dependent NMR relaxation analyses” (Nature Communications, 2017)", "binders": {"B1": {"name": "GoLoco14 peptide (residues 496–531 of rat RGS14) (peptide)", "chain": "GPLGSDIEGLVELLNRVQSSGAHDQRGLLRKEDLVLPEFLQ"}}, "biological_target": "human Gαi3 (residues 1–354), GDP-bound form (human, UniProt P08754 1-354)", "sequence (P08754 whole entry, the tested form may be a part)": "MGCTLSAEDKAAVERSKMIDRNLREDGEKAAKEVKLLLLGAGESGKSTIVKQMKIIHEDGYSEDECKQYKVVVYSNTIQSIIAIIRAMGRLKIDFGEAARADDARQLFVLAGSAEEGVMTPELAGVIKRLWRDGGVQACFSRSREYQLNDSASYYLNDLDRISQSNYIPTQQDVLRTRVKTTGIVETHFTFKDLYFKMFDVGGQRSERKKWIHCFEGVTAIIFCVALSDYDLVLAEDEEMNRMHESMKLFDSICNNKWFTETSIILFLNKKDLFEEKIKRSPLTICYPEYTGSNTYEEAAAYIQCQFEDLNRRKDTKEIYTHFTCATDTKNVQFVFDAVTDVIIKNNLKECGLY", "assay": "cell-based or functional assay", "data": [{"binder": "B1", "values": [{"measurement": "IC50 of the inhibition of 3H-GDP dissociation from Gα-GDP (bound 3H-GDP after a 10 min incubation with 100 nM to 10 μM GoLoco14; 30 °C)", "value": 620, "unit": "nM"}]}]}
